# Several values for one entry are separate records, joined by “and”; a condition that tells them apart may be missing. Equal entries are not always repeated.
# B1: ancestor MBP-His6-J^981–1132 (wild-type bacteriophage λ J, C-terminal 152 amino acids, MBP-tagged) (domain or fragment, UniProt P03749 981-1132, looked up)
# chain: NCTINGTLRAEKIVGDIVKAASAAFPRQRESSVDWPSGTRTVTVTDDHPFDRQIVVLPLTFRGSKRTVSGRTTYSMCYLKVLMNGAVIYDGAANEAVQVFSRIVDMPAGRGNVILTFTLTSTRHSADIPPYTFASDVQVMVIKKQALGISVV
# Target: the molecule itself
# Test: SEC-MALS
protein,measurement,value
B1,stoichiometry N,3 and 2
